The DeepSol protein solubility set

Test: soluble on expression in E. coli; label from the status in PepcDB or PDB records

Row | Sequence | soluble on expression in E. coli
1 | MLYQSETLQLHWLENGIAELVFDAPGSVNKLDTKTVANLGEALNVLEKQSELKGLLLRSAKTALIVGADITEFLSLFNAPPEKLHQWLVFANTIFNRLEDLPVPTISAINGYALGGGCECILATDFRIASPEARIGLPETKLGIMPGFGGSVRLPRLLGADSALEIIATGKDVTANDALKIGLVDAVVDPEKLVGSALTMLKQAIDGKLDWQAARRPKLEPLKLNPTEAAMCFTIAKGRVMQVAGKHYPAPLTAVKTIEAAAKFGRTEALNLETNSFVPLAGSNEARALVGIFLNDQYVKAQAKKLSKGVAAPKLAAVLGAGIMGGGIAYQSALKSVPVIMKDINENSLDLGMNEAAKLLNKQLERGKVDGLKMASILATIRPTLDYAGIERAQVIVEAVVENPKVKAAVLAEVEALIGEDTVLASNTSTIPIDQLAKSLKRPENFCGMHFFNPVHRMPLVEIIRGAKTSDKTLAAVVAYATQMGKTPIVVNDCPGFFVNRVLFPYLAGFGMLVRDGGDFHQIDKVMEKQFGWPMGPAYLLDVVGIDTAHHAQAVMAAGFPERMNKDYRDAVDVMFDNQRFGQKNGQGFYRYTQDAKGKPRKENDEQVDKLLAEISQPLQEFSDEDIIARTMIPMINEVVRCLEEGIIASAAEGDMALVYGLGFPPFHGGVFRYLDTLGSANYVEMAQRYAHLGALYHVPAGLRAKAEHNESYYPVAAALLDVSTNQPA | not soluble
2 | MGSDKIHHHHHHMERNEIEQLVAHGIFPYDQQAKTRLIETAISYILLKGSYAYKIKKNIKLSFLDFSTLEKRRHFCYEELRLNQRLAKDMYINVFAVSKKGKQWSISTGPAKAKEYVILMKGMNPDHQLNALLKKNRITKKPIRQLAQQLADFHQNEKSLSLTYDPFFLSREFADIEKFSSTIEKKLGVDYYKLVQTCIQLSNHFVLLQQEFISKRPCLGYFKNCHGDLHSQNIFIEKKPVIFDCIEFREAFRHIDVLNEIAFLCMDLETYGYADLSKIFLTDYIKKTGYAFGKKEQLLFTYFKAYRSCIRAKVHTIEMSQHPSSTQIKEKVKKYIEGMAGYMIEIAGKF | not soluble
3 | LSNFQGKVMMTVNATDVTDVITIPTAAGKNLCIVRAMDVGYMCDDTITYECPVLSAGNDPEDIDCWCTKSAVYVRYGRCT | soluble
4 | MSDWTYSEGALDEAHWPQHYPACGGQRQSPINLQRTKVRYNPSLKGLNMTGYETQAGEFPMVNNGHTVQISLPSTMRMTVADGTVYIAQQMHFHWGGASSEISGSEHTVDGIRHVIEIHIVHYNSKYKSYDIAQDAPDGLAVLAAFVEVKNYPENTYYSNFISHLANIKYPGQRTTLTGLDVQDMLPRNLQHYYTYHGSLTTPPCTENVHWFVLADFVKLSRTQVWKLENSLLDHRNKTIHNDYRRTQPLNHRVVESNFPNQEYTLGSEFQAENLYFQ | soluble
5 | MGSDKIHHHHHHMKVVIVGNGPGGVELAKQLSEEHEVTIVERETVPYYTKPMLSHYVAGLAEEKSLFPYPIDWYEKKGIKLLLGTTAKRIDAEKKVLETDRGTLEYDVLVLATGAKPRTLKIPGWERMYTLRTIEDAKRLKGAVEREKDLLIIGGGFIGLEIAGNLSKQGIKVKVVEKMTRLMGLDEELTERIKGELEKHGVEFYLGRDVERIENDVLVTDKEEIPARVILCSIGIVPEVSLAKESGLDVNRGILVDKTFRTSKPDIYAIGDCAEHEGIICGTAKAAMAHAKVLANTLKGIPDEYDFHFRSSYFKFGDFPIAIVGELTDRGEWIDSETKSFYRDEKIVGVVVLSDVRKAREWEERLRSTR | not soluble
6 | MANRIQEIALSDKNLGSKIKAVYKTERDIYVNGAPVRGRVFTASSEKQRDFEIFVPHLRNSQMLNGREEVKLIDPVARINVKRNNIGNSRSIDMVVYAKRLEVVGGNK | not soluble
7 | MGSDKIHHHHHHAESDSFEDNSSNFESMISLYGIQSATVDSKVGDVPSVTAEEMASVLEALRQNGNTIRNCESETLEGYYEGGDRKEVKMIAEYQARTRSGAFVEQFALCVSVNFNIDNNGGVFYIGTTYSSSTDLFNWQGYGASLSTTAEGNSVFSSTSYLYFRVSDQGNCLVKVPVSFKGSYNFKDNKGTYSFTLSKAAN | not soluble
8 | MKIAVAGSGYVGLSLGVLLSLQNEVTIVDILPSKVDKINNGLSPIQDEYIEYYLKSKQLSIKATLDSKAAYKEAELVIIATPTNYNSRINYFDTQHVETVIKEVLSVNSHATLIIKSTIPIGFITEMRQKFQTDRIIFSPEFLRESKALYDNLYPSRIIVSCEENDSPKVKADAEKFALLLKSAAKKNNVPVLIMGASEAEAVKLFANTYLALRVAYFNELDTYAESRKLNSHMIIQGISYDDRIGMHYNNPSFGYGGYCLPKDTKQLLANYNNIPQTLIEAIVSSNNVRKSYIAKQIINVLKEQESPVKVVGVYRLIMKSNSDNFRESAIKDVIDILKSKDIKIIIYEPMLNKLESEDQSVLVNDLENFKKQANIIVTNRYDNELQDVKNKVYSRDIFGRD | soluble
9 | AETTVKPTKLAVIGAGAVGSTLAFAAAQRGIAREIVLEDIAKERVEAEVLDMQHGSSFYPTVSIDGSDDPEICRDADMVVITAGPRQKPGQSRLELVGATVNILKAIMPNLVKVAPNAIYMLITNPVDIATHVAQKLTGLPENQIFGSGTNLDSARLRFLIAQQTGVNVKNVHAYIAGEHGDSEVPLWESATIGGVPMSDWTPLPGHDPLDADKREEIHQEVKNAAYKIINGKGATNYAIGMSGVDIIEAVLHDTNRILPVSSMLKDFHGISDICMSVPTLLNRQGVNNTINTPVSDKELAALKRSAETLKETAAQFGF | soluble
10 | MGSDKIHHHHHHMAYRSAPLYEDVIWRTHLQPQDPTLAQAVRATIAKHREHLLEFIRLDEPAPLNAMTLAQWSSPNVLSSLLAVYSDHIYRNQPMMIRENKPLISLWAQWYIGLMVPPLMLALLTQEKALDVSPEHFHAEFHETGRVACFWVDVCEDKNATPHSPQHRMETLISQALVPVVQALEATGEINGKLIWSNTGYLINWYLTEMKQLLGEATVESLRHALFFEKTLTNGEDNPLWRTVVLRDGLLVRRTCCQRYRLPDVQQCGDCTLK | not soluble
11 | MSLRAAKRHGISIIVAEKNLILGLDVGNTVIKAVLFDTAGRQIAQHAIDGHSTYPQPGYVERDLEELWRNGCEAIRQLLVKSAVDPNSIAGVGCAGHGNGLYLLDKEQQPLLGIQSLDSRAADMAAELDRKSGDLLQARCLQRPWPAQTPTLLAWVKRHALDLYAQTSTVLFCKDFINFRLTGCLANDISDLSGAGLLALPEVLLDRELLSLYGLEDAFAFFPRCVESADIVGQVTREAAGLTGLSEGTPVIGGFFDVVSSAMGSGVINPGEASVIAGTWSINQVFADKPVVSPDVFMVTTFGRDRYVNIESSATSAANLEWYVHRVRADHGDHAFERCNELVGSVTPRADDPFFHPFIFGSRLGAEFRGGFYGLAGWHGEGHMVRALFEGVCFEHRRHIGVLREAGLPVESAVMSGGGSRSQHWPQIMADVLEIPLRVAEARETGALGAALGAAVATGLYPNYEEAVAAMTRVQNSYQPDTARVSHYRRRYGLYQELTGQLRSFWSALRLPQEGHHHHHH | not soluble
12 | QLSSFETCAEKEESANTTESAIFEYHCEMSFDPNLLHNNGHNGYPNGTSAALRETGVIEKLLTSYGFIQCSERQARLFFHCSQYNGNLQDLKVGDDVEFEVSSDRRTGKPIAVKLVKIKQEILPEERMNGQVVCAVPHNLESKSPAAPGQSPTGSVCYERNGEVFYLTYTPEDVEGNVQLETGDKINFVIDNNKHTGAVSARNIMLLKKKQARCQGVVCAMKEAFGFIERGDVVKEIFFHYSEFKGDLETLQPGDDVEFTIKDRNGKEVATDVRLLPQGTVIFEDISIEHFEGTVTKVIPKVPSKNQNDPLPGRIKVDFVIPKELPFGDKDTKSKVTLLEGDHVRFNISTDRRDKLERATNIEVLSNTFQFTNEAREMGVIAAMRDGFGFIKCVDRDVRMFFHFSEILDGNQLHIADEVEFTVVPDMLSAQRNHAIRIKKLPKGTVSFHSHSDHRFLGTVEKEATFSNPKTTSPNKGKEKEAEDGIIAYDDCGVKLTIAFQAKDVEGSTSPQIGDKVEFSISDKQRPGQQVATCVRLLGRNSNSKRLLGYVATLKDNFGFIETANHDKEIFFHYSEFSGDVDSLELGDMVEYSLSKGKGNKVSAEKVNKTHSVNGITEEADPTIYSGKVIRPLRSVDPTQTEYQGMIEIVEEGDMKGEVYPFGIVGMANKGDCLQKGESVKFQLCVLGQNAQTMAYNITPLRRATVECVKDQFGFINYEVGDSKKLFFHVKEVQDGIELQAGDEVEFSVILNQRTGKCSACNVWRVCEGPKAVAAPRPDRLVNRLKNITLDDASAPRLMVLRQPRGPDNSMGFGAERKIRQAGVID | soluble
13 | MTTEQEFEKVELTADGGVIKTILKKGDEGEENIPKKGNEVTVHYVGKLESTGKVFDSSFDRNVPFKFHLEQGEVIKGWDICVSSMRKNEKCLVRIESMYGYGDEGCGESIPGNSVLLFEIELLSFRELE | soluble
14 | NGHYMDQFTYAERATDWRGNNNIANSIFSQMQLEDHPIPSWVVMSPGTGGTSATIGRFIRYQKYDTKLCVVDPENSVFYDAFQSGNNELKGNTGSKIEGIGRPRVEPSFIAGVVDEMRKIPDAASIATAHWVSQLIGRKVGASTGTNLYGVLQLACEMKQRGETGSIVTLLCDSGERYLDTYYDLAWVKENIGDIQPYLTQLEVIQAKGCVEPACCGPITA | not soluble
15 | GGGSGGSKKDEHKQQGELYMWDSIDQKWTRHYCAIADAKLSFSDDIEQTMEEDNPLGSLCRGILDLNTYNVVKAPQGKNQKSFVFILEPKQQGDPPVEFATDRVEELFEWFQSIREITWKIDTK | soluble
16 | GEAPADRLKALVDAAVQPVMKANDIPGLAVAISLKGEPHYFSYGLASKEDGRRVTPETLFEIGSVSKTFTATLAGYALTQDKMRLDDRASQHWPALQGSRFDGISLLDLATYTAGGLPLQFPDSVQKDQAQIRDYYRQWQPTYAPGSQRLYSNPSIGLFGYLAARSLGQPFERLMEQQVFPALGLEQTHLDVPEAALAQYAQGYGKDDRPLRVGPGPLDAEGYGVKTSAADLLRFVDANLHPERLDRPWAQALDATHRGYYKVGDMTQGLGWEAYDWPISLKRLQAGNSTPMALQPHRIARLPAPQALEGQRLLNKTGSTNGFGAYVAFVPGRDLGLVILANRNYPNAERVKIAYAILSGLEQQGKVPLKR | soluble
17 | MGSLYTSELSRAVSESVAAALQRSFQGELRSASALGSGWSTSAELLNRNDSTERYFVKLSEPQAVSMFSAEFEGIQAMAESETVRVPAPICYGNTAERSFIVLEYLELGGIGNEAVYRDFGEKLAAMHRCSSGGRGYGWHRGNTIGSTPQLNTWMHSWADFFVENRLRYQLKLARSRQGGRLRNEDALLQRVHSVLQEHEIQHQVTPSLVHGDLWTGNVATLRNQNEVVIFDPATYYGDREVDLAMTELFGRLPRAFYQAYDASWPLPKGYREKRRVIYNLYHILNHGALFGGGYYDQAQSMIETILR | soluble
18 | MGSDKIHHHHHHMVKNYVLDTNVLIHDPDSIFSFEDNNVIIPLPVLEELDKLKREHGSVGKNAREVIRHLDELRKKGNLRKGIPLENGGILRVMVLEREVENVPRFLHERYVDNIILAYVIELMNREKIPTILVSKDINLRVKADSLGIPAQDYLTDRSELETMPKGYVEIDDEELKKQLKVKVTVEKKLDLLDNFYIDLGGVYGKYRKGKVLRVEPFETMGISPRNREQIFSMDALLDDEIPLVFLVGIAGTGKTLLALACGLYKVLVEKRYKKLIVTRPTVPMGRDIGYLPGELEKKMKPWLQPIMDNLELISSLSGLKIKELEKQEILEVEAISFIRGRSIPKQFIIIDEAQNLTPHEVKTILTRVGEDTKIVLVGDPYQIDTPYLDKDTNGLVYAALKLLESDLSAVIKLEKGERSRLATIAAELL | not soluble
19 | MNLLLFFLLSTVSVFAVVSGTVEETARDVIDALAHAPFEEWSSVFIETNDRIRAEVIPSTLFIPNSSANGSDDRHKLASYHIVPQRLEFADLLLKPSRSRLPTLLNGSSILVTNNSATSFSIDGVLIIELDIYVDSFIAIHRIAYPLDYTTYGGGSKLISKWPLFTFMLVTVVWFI | soluble
